The results in this text go back to patent publication US20240400654A1.

“And” between values parts separate entries of the source, which are not always exact repeats. Equal values may be shown once.

The assay has as its target HRgpA-6H (Porphyromonas gingivalis) (UniProt P28784). The experiment in a line: ELISA, coated HRgpA-6H. In general terms: ELISA stands for enzyme-linked immunosorbent assay.
Chain of UniProt P28784 (P28784 228-860 limits assumed): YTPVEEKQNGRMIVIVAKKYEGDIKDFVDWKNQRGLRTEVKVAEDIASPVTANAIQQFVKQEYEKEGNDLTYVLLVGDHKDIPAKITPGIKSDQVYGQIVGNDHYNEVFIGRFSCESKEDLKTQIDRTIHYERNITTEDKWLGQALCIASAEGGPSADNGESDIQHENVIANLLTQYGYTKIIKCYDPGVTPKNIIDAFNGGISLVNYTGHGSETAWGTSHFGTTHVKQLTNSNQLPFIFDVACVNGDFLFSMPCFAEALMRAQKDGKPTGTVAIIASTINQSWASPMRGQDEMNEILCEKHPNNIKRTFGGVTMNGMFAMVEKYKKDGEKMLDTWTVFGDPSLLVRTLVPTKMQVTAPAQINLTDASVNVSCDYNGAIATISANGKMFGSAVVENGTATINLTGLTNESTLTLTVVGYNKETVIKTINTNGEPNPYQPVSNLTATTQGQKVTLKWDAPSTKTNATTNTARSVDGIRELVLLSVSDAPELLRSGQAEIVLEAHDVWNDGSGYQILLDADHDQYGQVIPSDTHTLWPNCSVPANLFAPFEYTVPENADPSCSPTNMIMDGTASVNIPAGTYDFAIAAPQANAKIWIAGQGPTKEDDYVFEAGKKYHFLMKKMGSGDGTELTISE

B1: KB001 mouse Fab VH G53P (Fab, V domains shown)
VH: EVQLKQSGPGLVAPSQSLSITCTVSGFSLSIYSVHWVRQPPGKGLEWLGMIWPGGSSDYNSALKSRLSISKDNSKSQVFLKMNSLQTDDTAMYYCARNGNFYAMDYWGQGTSVTVSS
VL: QIVLTQSPAIMSASLGERVTMTCTASSSVSSSFLHWYQQKPGSSPQLWIYSTSNLASGVPARFSGSGSGTSYSLTISSMEAEDAATYYCHQYHHSPYIYTFGGGTKLEIK
B1: the OD450 nm is 0.754 and 0.716; the Ratio OD(Variant)/OD(WT) is 0.947 and 0.899.

B2: KB001 mouse Fab VH S56M (Fab, V domains shown)
VH: EVQLKQSGPGLVAPSQSLSITCTVSGFSLSIYSVHWVRQPPGKGLEWLGMIWGGGMSDYNSALKSRLSISKDNSKSQVFLKMNSLQTDDTAMYYCARNGNFYAMDYWGQGTSVTVSS
VL: QIVLTQSPAIMSASLGERVTMTCTASSSVSSSFLHWYQQKPGSSPQLWIYSTSNLASGVPARFSGSGSGTSYSLTISSMEAEDAATYYCHQYHHSPYIYTFGGGTKLEIK
For the molecule B2, the OD450 nm stood at 0.809 and the Ratio OD(Variant)/OD(WT) turned out to be 0.92.

B3: KB001 mouse Fab VH S57H (Fab, V domains shown)
VH: EVQLKQSGPGLVAPSQSLSITCTVSGFSLSIYSVHWVRQPPGKGLEWLGMIWGGGSHDYNSALKSRLSISKDNSKSQVFLKMNSLQTDDTAMYYCARNGNFYAMDYWGQGTSVTVSS
VL: QIVLTQSPAIMSASLGERVTMTCTASSSVSSSFLHWYQQKPGSSPQLWIYSTSNLASGVPARFSGSGSGTSYSLTISSMEAEDAATYYCHQYHHSPYIYTFGGGTKLEIK
On to B3, for which the OD450 nm was 0.8 and the Ratio OD(Variant)/OD(WT) was 0.91.

B4: KB001 mouse Fab VH G55N (Fab, V domains shown)
VH: EVQLKQSGPGLVAPSQSLSITCTVSGFSLSIYSVHWVRQPPGKGLEWLGMIWGGNSSDYNSALKSRLSISKDNSKSQVFLKMNSLQTDDTAMYYCARNGNFYAMDYWGQGTSVTVSS
VL: QIVLTQSPAIMSASLGERVTMTCTASSSVSSSFLHWYQQKPGSSPQLWIYSTSNLASGVPARFSGSGSGTSYSLTISSMEAEDAATYYCHQYHHSPYIYTFGGGTKLEIK
On to B4, for which the OD450 nm was 0.652 and the Ratio OD(Variant)/OD(WT) is 0.81.

B5: KB001 mouse Fab VH S56P (Fab, V domains shown)
VH: EVQLKQSGPGLVAPSQSLSITCTVSGFSLSIYSVHWVRQPPGKGLEWLGMIWGGGPSDYNSALKSRLSISKDNSKSQVFLKMNSLQTDDTAMYYCARNGNFYAMDYWGQGTSVTVSS
VL: QIVLTQSPAIMSASLGERVTMTCTASSSVSSSFLHWYQQKPGSSPQLWIYSTSNLASGVPARFSGSGSGTSYSLTISSMEAEDAATYYCHQYHHSPYIYTFGGGTKLEIK
As to B5, the OD450 nm was 0.855 and 0.788 and 0.824; the Ratio OD(Variant)/OD(WT) is 0.972 and 0.896 and 0.937.

B6: KB001 mouse Fab VH S57R (Fab, V domains shown)
VH: EVQLKQSGPGLVAPSQSLSITCTVSGFSLSIYSVHWVRQPPGKGLEWLGMIWGGGSRDYNSALKSRLSISKDNSKSQVFLKMNSLQTDDTAMYYCARNGNFYAMDYWGQGTSVTVSS
VL: QIVLTQSPAIMSASLGERVTMTCTASSSVSSSFLHWYQQKPGSSPQLWIYSTSNLASGVPARFSGSGSGTSYSLTISSMEAEDAATYYCHQYHHSPYIYTFGGGTKLEIK
B6: the OD450 nm stood at 0.796 and the Ratio OD(Variant)/OD(WT) was 0.905.

B7: KB001 mouse Fab VH S56N (Fab, V domains shown)
VH: EVQLKQSGPGLVAPSQSLSITCTVSGFSLSIYSVHWVRQPPGKGLEWLGMIWGGGNSDYNSALKSRLSISKDNSKSQVFLKMNSLQTDDTAMYYCARNGNFYAMDYWGQGTSVTVSS
VL: QIVLTQSPAIMSASLGERVTMTCTASSSVSSSFLHWYQQKPGSSPQLWIYSTSNLASGVPARFSGSGSGTSYSLTISSMEAEDAATYYCHQYHHSPYIYTFGGGTKLEIK
With B7, the OD450 nm was 0.759 and 0.743; the Ratio OD(Variant)/OD(WT) was 0.863 and 0.845.

B8: KB001 mouse Fab VH S56L (Fab, V domains shown)
VH: EVQLKQSGPGLVAPSQSLSITCTVSGFSLSIYSVHWVRQPPGKGLEWLGMIWGGGLSDYNSALKSRLSISKDNSKSQVFLKMNSLQTDDTAMYYCARNGNFYAMDYWGQGTSVTVSS
VL: QIVLTQSPAIMSASLGERVTMTCTASSSVSSSFLHWYQQKPGSSPQLWIYSTSNLASGVPARFSGSGSGTSYSLTISSMEAEDAATYYCHQYHHSPYIYTFGGGTKLEIK
With B8, the OD450 nm came to 0.71 and the Ratio OD(Variant)/OD(WT) stood at 0.807.

B9: KB001 mouse Fab VH S57T (Fab, V domains shown)
VH: EVQLKQSGPGLVAPSQSLSITCTVSGFSLSIYSVHWVRQPPGKGLEWLGMIWGGGSTDYNSALKSRLSISKDNSKSQVFLKMNSLQTDDTAMYYCARNGNFYAMDYWGQGTSVTVSS
VL: QIVLTQSPAIMSASLGERVTMTCTASSSVSSSFLHWYQQKPGSSPQLWIYSTSNLASGVPARFSGSGSGTSYSLTISSMEAEDAATYYCHQYHHSPYIYTFGGGTKLEIK
As to B9, the OD450 nm is 0.843 and 0.849; the Ratio OD(Variant)/OD(WT) was 0.958 and 0.965.

B10: KB001 mouse Fab VH G55D (Fab, V domains shown)
VH: EVQLKQSGPGLVAPSQSLSITCTVSGFSLSIYSVHWVRQPPGKGLEWLGMIWGGDSSDYNSALKSRLSISKDNSKSQVFLKMNSLQTDDTAMYYCARNGNFYAMDYWGQGTSVTVSS
VL: QIVLTQSPAIMSASLGERVTMTCTASSSVSSSFLHWYQQKPGSSPQLWIYSTSNLASGVPARFSGSGSGTSYSLTISSMEAEDAATYYCHQYHHSPYIYTFGGGTKLEIK
On to B10, for which the OD450 nm turned out to be 0.697 and the Ratio OD(Variant)/OD(WT) is 0.866.

B11: KB001 mouse Fab VH S56E (Fab, V domains shown)
VH: EVQLKQSGPGLVAPSQSLSITCTVSGFSLSIYSVHWVRQPPGKGLEWLGMIWGGGESDYNSALKSRLSISKDNSKSQVFLKMNSLQTDDTAMYYCARNGNFYAMDYWGQGTSVTVSS
VL: QIVLTQSPAIMSASLGERVTMTCTASSSVSSSFLHWYQQKPGSSPQLWIYSTSNLASGVPARFSGSGSGTSYSLTISSMEAEDAATYYCHQYHHSPYIYTFGGGTKLEIK
Take B11: the OD450 nm is 0.772 and 0.713; the Ratio OD(Variant)/OD(WT) was 0.878 and 0.811.

B12: KB001 mouse Fab VH G53S (Fab, V domains shown)
VH: EVQLKQSGPGLVAPSQSLSITCTVSGFSLSIYSVHWVRQPPGKGLEWLGMIWSGGSSDYNSALKSRLSISKDNSKSQVFLKMNSLQTDDTAMYYCARNGNFYAMDYWGQGTSVTVSS
VL: QIVLTQSPAIMSASLGERVTMTCTASSSVSSSFLHWYQQKPGSSPQLWIYSTSNLASGVPARFSGSGSGTSYSLTISSMEAEDAATYYCHQYHHSPYIYTFGGGTKLEIK
Take B12: the OD450 nm was 0.686 and the Ratio OD(Variant)/OD(WT) was found to be 0.861.

B13: KB001 mouse Fab VH S56T (Fab, V domains shown)
VH: EVQLKQSGPGLVAPSQSLSITCTVSGFSLSIYSVHWVRQPPGKGLEWLGMIWGGGTSDYNSALKSRLSISKDNSKSQVFLKMNSLQTDDTAMYYCARNGNFYAMDYWGQGTSVTVSS
VL: QIVLTQSPAIMSASLGERVTMTCTASSSVSSSFLHWYQQKPGSSPQLWIYSTSNLASGVPARFSGSGSGTSYSLTISSMEAEDAATYYCHQYHHSPYIYTFGGGTKLEIK
Consider B13, for which the OD450 nm was 0.838 and 0.844 and 0.853; the Ratio OD(Variant)/OD(WT) is 0.953 and 0.96 and 0.97.

B14: KB001 mouse Fab VH S57M (Fab, V domains shown)
VH: EVQLKQSGPGLVAPSQSLSITCTVSGFSLSIYSVHWVRQPPGKGLEWLGMIWGGGSMDYNSALKSRLSISKDNSKSQVFLKMNSLQTDDTAMYYCARNGNFYAMDYWGQGTSVTVSS
VL: QIVLTQSPAIMSASLGERVTMTCTASSSVSSSFLHWYQQKPGSSPQLWIYSTSNLASGVPARFSGSGSGTSYSLTISSMEAEDAATYYCHQYHHSPYIYTFGGGTKLEIK
Turning to B14, the OD450 nm is 0.748 and the Ratio OD(Variant)/OD(WT) came out at 0.85.
